Bridge positions count the residues as written; N and C are the ends. Square brackets hold non-standard residues; d marks the D form. Phe(4-F) = N[C@@H](Cc1ccc(F)cc1)C(=O)O; R8 = C=CCCCCCC[C@@](C)(N)C(=O)O; hLeu = CC(C)CC[C@H](N)C(=O)O; S5 = C=CCCC[C@](C)(N)C(=O)O; Nle = CCCC[C@H](N)C(=O)O
B1: SP-962 (peptidomimetic macrocycle derived from the MCL-1/BCL-XL/BCL-2-binding helix of BIM) (peptide)
peptide: Ac-IWIAQALR[R8][hLeu]GDAFN[S5]Y[Phe(4-F)]A-NH2
modifications: staple 9-16
SMILES: CC[C@H](C)[C@H](NC(C)=O)C(=O)N[C@@H](Cc1c[nH]c2ccccc12)C(=O)N[C@H](C(=O)N[C@@H](C)C(=O)N[C@@H](CCC(N)=O)C(=O)N[C@@H](C)C(=O)N[C@@H](CC(C)C)C(=O)N[C@@H](CCCNC(=N)N)C(=O)N[C@]1(C)CCCCCCC=CCCC[C@@](C)(C(=O)N[C@@H](Cc2ccc(O)cc2)C(=O)N[C@@H](Cc2ccc(F)cc2)C(=O)N[C@@H](C)C(N)=O)NC(=O)[C@H](CC(N)=O)NC(=O)[C@H](Cc2ccccc2)NC(=O)[C@H](C)NC(=O)[C@H](CC(=O)O)NC(=O)CNC(=O)[C@H](CCC(C)C)NC1=O)[C@@H](C)CC
notes: Stapled BIM BH3 peptide, 19 residues
B2: SP-815 (peptidomimetic macrocycle derived from the MCL-1/BCL-XL/BCL-2-binding helix of BIM) (peptide)
peptide: Ac-IWIAQALR[R8]IGDAFN[S5]YYA-NH2
modifications: staple 9-16
SMILES: CC[C@H](C)[C@H](NC(C)=O)C(=O)N[C@@H](Cc1c[nH]c2ccccc12)C(=O)N[C@H](C(=O)N[C@@H](C)C(=O)N[C@@H](CCC(N)=O)C(=O)N[C@@H](C)C(=O)N[C@@H](CC(C)C)C(=O)N[C@@H](CCCNC(=N)N)C(=O)N[C@]1(C)CCCCCCC=CCCC[C@@](C)(C(=O)N[C@@H](Cc2ccc(O)cc2)C(=O)N[C@@H](Cc2ccc(O)cc2)C(=O)N[C@@H](C)C(N)=O)NC(=O)[C@H](CC(N)=O)NC(=O)[C@H](Cc2ccccc2)NC(=O)[C@H](C)NC(=O)[C@H](CC(=O)O)NC(=O)CNC(=O)[C@H]([C@@H](C)CC)NC1=O)[C@@H](C)CC
notes: as for B1
B3: SP-809 (peptidomimetic macrocycle derived from the MCL-1/BCL-XL/BCL-2-binding helix of BIM) (peptide)
peptide: Ac-IWIAQALR[R8]IGDEFN[S5]YYARR-NH2
modifications: staple 9-16
SMILES: CC[C@H](C)[C@H](NC(C)=O)C(=O)N[C@@H](Cc1c[nH]c2ccccc12)C(=O)N[C@H](C(=O)N[C@@H](C)C(=O)N[C@@H](CCC(N)=O)C(=O)N[C@@H](C)C(=O)N[C@@H](CC(C)C)C(=O)N[C@@H](CCCNC(=N)N)C(=O)N[C@]1(C)CCCCCCC=CCCC[C@@](C)(C(=O)N[C@@H](Cc2ccc(O)cc2)C(=O)N[C@@H](Cc2ccc(O)cc2)C(=O)N[C@@H](C)C(=O)N[C@@H](CCCNC(=N)N)C(=O)N[C@@H](CCCNC(=N)N)C(N)=O)NC(=O)[C@H](CC(N)=O)NC(=O)[C@H](Cc2ccccc2)NC(=O)[C@H](CCC(=O)O)NC(=O)[C@H](CC(=O)O)NC(=O)CNC(=O)[C@H]([C@@H](C)CC)NC1=O)[C@@H](C)CC
notes: Stapled BIM BH3 peptide, 21 residues
B4: SP-810 (peptidomimetic macrocycle derived from the MCL-1/BCL-XL/BCL-2-binding helix of BIM) (peptide)
peptide: Ac-IWIAQELR[R8]IGDEFN[S5]YYARR-NH2
modifications: staple 9-16
SMILES: CC[C@H](C)[C@H](NC(C)=O)C(=O)N[C@@H](Cc1c[nH]c2ccccc12)C(=O)N[C@H](C(=O)N[C@@H](C)C(=O)N[C@@H](CCC(N)=O)C(=O)N[C@@H](CCC(=O)O)C(=O)N[C@@H](CC(C)C)C(=O)N[C@@H](CCCNC(=N)N)C(=O)N[C@]1(C)CCCCCCC=CCCC[C@@](C)(C(=O)N[C@@H](Cc2ccc(O)cc2)C(=O)N[C@@H](Cc2ccc(O)cc2)C(=O)N[C@@H](C)C(=O)N[C@@H](CCCNC(=N)N)C(=O)N[C@@H](CCCNC(=N)N)C(N)=O)NC(=O)[C@H](CC(N)=O)NC(=O)[C@H](Cc2ccccc2)NC(=O)[C@H](CCC(=O)O)NC(=O)[C@H](CC(=O)O)NC(=O)CNC(=O)[C@H]([C@@H](C)CC)NC1=O)[C@@H](C)CC
notes: as for B3
B5: SP590 (Table 1b): Ac-LTF$rAYWAQL$A-NH2 (peptide)
peptide: Ac-LTF[R8]AYWAQL[S5]A-NH2
modifications: staple 4-11
SMILES: CC(=O)N[C@@H](CC(C)C)C(=O)N[C@H](C(=O)N[C@@H](Cc1ccccc1)C(=O)N[C@]1(C)CCCCCCC=CCCC[C@@](C)(C(=O)N[C@@H](C)C(N)=O)NC(=O)[C@H](CC(C)C)NC(=O)[C@H](CCC(N)=O)NC(=O)[C@H](C)NC(=O)[C@H](Cc2c[nH]c3ccccc23)NC(=O)[C@H](Cc2ccc(O)cc2)NC(=O)[C@H](C)NC1=O)[C@@H](C)O

biological target: T1, MCL-1 (Myeloid cell leukemia 1) (UniProt Q07820 172-327, limits assumed); assay: IC50 against MCL-1, Table 4b; assay format not stated
T1 construct: Construct used in the IC50 assay is not described
T1 sequence (Q07820 172-327 limits assumed): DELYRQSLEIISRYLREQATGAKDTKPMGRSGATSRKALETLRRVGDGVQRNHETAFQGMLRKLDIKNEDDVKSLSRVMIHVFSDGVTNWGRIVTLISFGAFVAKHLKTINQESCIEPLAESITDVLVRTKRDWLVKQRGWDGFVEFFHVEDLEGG

IC50 [nM] | Binder
27 | B1
8.4 | B2
10.6 | B3

biological target: T2, BCL-XL (UniProt Q07817 1-209); assay: IC50 against BCL-XL, Table 4b; assay format not stated
T2 construct: Construct used in the IC50 assay is not described; also called BCL-X1
T2 sequence (Q07817 1-209): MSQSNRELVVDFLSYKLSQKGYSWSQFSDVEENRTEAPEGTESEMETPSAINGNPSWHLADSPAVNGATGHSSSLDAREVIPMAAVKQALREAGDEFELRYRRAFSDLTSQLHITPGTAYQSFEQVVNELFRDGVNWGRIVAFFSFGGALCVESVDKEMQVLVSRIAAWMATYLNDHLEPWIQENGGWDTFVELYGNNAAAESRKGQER

IC50 [nM] | Binder
13 | B1
22.4 | B2
9.2 | B4
3.9 | B3

biological target: T3, MDM2 (human, UniProt Q00987 1-138, limits assumed); assay: IC50 against MDM2; assay format and competitor not described with the table
T3 construct: also called HDM2; human double minute 2
T3 sequence (Q00987 1-138 limits assumed): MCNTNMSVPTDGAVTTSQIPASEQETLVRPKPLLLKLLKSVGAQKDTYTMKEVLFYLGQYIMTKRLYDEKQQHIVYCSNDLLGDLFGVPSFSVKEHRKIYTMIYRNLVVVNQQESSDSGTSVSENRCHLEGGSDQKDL

IC50 [nM] | Binder
141 | B5
29 | Ac-LTF[R8]AYWAQL[S5]AA[Nle]A-NH2 (staple 4-11, i, i+7 stapled p53-derived macrocycle) [SP68: Ac-LTF$r8AYWAQL$AANleA-NH2]
10 | Ac-LTF[R8]AYWAQL[S5]AAAAAA[dA]-NH2 (staple 4-11; also: single isomer iso1) [SP317: Ac-LTF$r8AYWAQL$AAAAAAa-NH2 (iso1)]
